Results as given in IntAct's records for PubMed 23340509.

B1: Protein Tob2 (Homo sapiens), Q14106 (parent)
chain: MQLEIKVALNFIISYLYNKLPRRRADLFGEELERLLKKKYEGHWYPEKPLKGSGFRCVHIGEMVDPVVELAAKRSGLAVEDVRANVPEELSVWIDPFEVSYQIGEKGAVKVLYLDDSEGCGAPELDKEIKSSFNPDAQVFVPIGSQDSSLSNSPSPSFGQSPSPTFIPRSAQPITFTTASFAATKFGSTKMKKGGGAASGGGVASSGAGGQQPPQQPRMARSPTNSLLKHKSLSLSMHSLNFITANPAPQSQLSPNAKEFVYNGGGSPSLFFDAADGQGSGTPGPFGGSGAGTCNSSSFDMAQVFGGGANSLFLEKTPFVEGLSYNLNTMQYPSQQFQPVVLAN

Variants of: B1
Details: with pabp1_human PABPC1, P11940
Sequence of pabp1_human PABPC1, P11940 (P11940 whole entry): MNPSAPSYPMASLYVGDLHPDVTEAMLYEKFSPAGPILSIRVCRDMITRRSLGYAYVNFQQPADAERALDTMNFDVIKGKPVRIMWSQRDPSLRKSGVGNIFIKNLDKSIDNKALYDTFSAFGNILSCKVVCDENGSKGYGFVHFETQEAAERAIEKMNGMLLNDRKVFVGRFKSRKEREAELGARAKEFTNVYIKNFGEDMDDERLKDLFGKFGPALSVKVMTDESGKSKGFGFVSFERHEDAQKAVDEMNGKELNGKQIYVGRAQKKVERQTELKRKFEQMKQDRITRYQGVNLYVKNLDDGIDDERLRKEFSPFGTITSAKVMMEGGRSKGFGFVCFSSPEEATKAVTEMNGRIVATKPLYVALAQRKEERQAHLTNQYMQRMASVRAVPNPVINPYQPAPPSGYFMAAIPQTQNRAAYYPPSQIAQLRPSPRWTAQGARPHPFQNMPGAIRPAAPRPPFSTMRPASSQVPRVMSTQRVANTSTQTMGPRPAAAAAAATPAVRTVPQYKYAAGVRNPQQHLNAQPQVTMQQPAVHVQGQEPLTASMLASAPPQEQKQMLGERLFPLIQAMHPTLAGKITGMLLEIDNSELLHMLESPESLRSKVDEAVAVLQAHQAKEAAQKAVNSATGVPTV

Row | Variant | effect of a mutation on the interaction
1 | F140A;F260A | disrupting interaction
